Experimental data: US20260242478A1 (published 2026)
Where no end group is shown, it is not given here.

B1: Phage-3516 (peptide)
peptide: SVAYCVPTWMCDGL
B2: Phage-3542 (peptide)
peptide: LYVKCSPEWMCIGF
notes: Tested as crude clonal phage supernatant
B3: Phage-3501 (peptide)
peptide: PLRYCEPAWMCFGF
modifications: cysteine pairing not given here; also: fused to pIII of bacteriophage, pIII and linker not given here
notes: Peptide-180 library clone, tested as clonal phage supernatant with the peptide fused to pIII of the bacteriophage
B4: Phage-3507 (peptide)
peptide: AEPVCVPDWMCFGF
B5: Phage-3510 (peptide)
peptide: ADIYCKPVWMCTGF
B6: Phage-3548 (peptide)
peptide: TPPFCIPKWMCQGF
notes: Clonal phage of the Peptide-180 library
B7: Phage-3499 (peptide)
peptide: THPLCVPTWMCSGF
modifications: cysteine pairing not given here; also: fused to pIII of bacteriophage, pIII and linker not given here
notes: as for B3
B8: Phage-3511 (peptide)
peptide: VGHMCKPVWMCAGL
B9: Phage-3540 (peptide)
peptide: VKPMCVPEWMCSGL
notes: as for B2
B10: Phage-3533 (peptide)
peptide: VERVCVPQWMCSGF
notes: as for B2
B11: Phage-3546 (peptide)
peptide: DARACVPEWMCYGF
notes: as for B2
B12: Phage-3549 (peptide)
peptide: MNIMCRPVWMCTGL
notes: as for B6
B13: Phage-3536 (peptide)
peptide: LEMACRPMWMCQGL
notes: as for B2
B14: Phage-3545 (peptide)
peptide: VVKACIPEWMCSGF
notes: as for B2
B15: Phage-3543 (peptide)
peptide: VTPQCVPMWMCTGF
notes: as for B2
B16: Phage-3500 (peptide)
peptide: YDHFCVPRWMCEGL
modifications: cysteine pairing not given here; also: fused to pIII of bacteriophage, pIII and linker not given here
notes: as for B3
B17: Phage-3513 (peptide)
peptide: SVTTCIPPWMCTGF
B18: Phage-3512 (peptide)
peptide: TEQICKPAWMCTGL
B19: Phage-3544 (peptide)
peptide: FLQACKPPWMCTGF
notes: as for B2
B20: Phage-3539 (peptide)
peptide: DVRMCVPEWMCSGF
notes: as for B2
B21: Phage-3502 (peptide)
peptide: WLYSCIPQWMCTGF
modifications: cysteine pairing not given here; also: fused to pIII of bacteriophage, pIII and linker not given here
notes: as for B3
B22: Phage-3504 (peptide)
peptide: NIIHCVPPWMCDGF
B23: Phage-3506 (peptide)
peptide: LTQMCKPLWMCAGF
B24: Phage-3550 (peptide)
peptide: MERMCVPSWMCTGF
notes: as for B6
B25: Phage-3551 (peptide)
peptide: IEKVCVPAWMCMGF
notes: as for B6
B26: Phage-3505 (peptide)
peptide: IEIRCKPEWMCTSF
B27: Phage-3515 (peptide)
peptide: PELACIPEWMCIGF
B28: Phage-3538 (peptide)
peptide: IARTCVPAWMCSGF
notes: as for B2
B29: Phage-3503 (peptide)
peptide: EAPACVPVWMCNGF
modifications: cysteine pairing not given here; also: fused to pIII of bacteriophage, pIII and linker not given here
notes: as for B3
B30: Phage-3517 (peptide)
peptide: MVPRCEPEWMCVGF
B31: Phage-3537 (peptide)
peptide: FEVACIPQWMCDGF
notes: as for B2
B32: Phage-3508 (peptide)
peptide: VDHRCVPSWMCYGL
B33: Phage-3535 (peptide)
peptide: LNAMCVPAWMCTGF
notes: as for B2
B34: Phage-3534 (peptide)
peptide: ESVYCIPQWMCSGL
notes: as for B2
B35: Phage-3547 (peptide)
peptide: TERVCVPDWMCAGF
notes: as for B6
B36: Phage-3541 (peptide)
peptide: ENLICKPAWMCVGF
notes: as for B2
B37: Phage-3514 (peptide)
peptide: VVKHCVPTWMCAGF
B38: Phage-3509 (peptide)
peptide: EYMRCEPSWMCYGF

Assays:
PSMA Fab [1] = target: T1, PSMA Fab (biotinylated (site not stated)); assay: clonal phage ELISA on captured PSMA Fab; competitor: PSMA antigen at saturating concentration
T1 construct: also called Anti-PSMA Fab; 006 PSMA Fab

PSMA Fab [2] = target: T1, PSMA Fab; assay: clonal phage ELISA on biotinylated PSMA Fab captured on neutravidin plate, anti-M13 HRP detection; no PSMA antigen
Protocol: (§1) Clonal phage were harvested as crude supernatants and screened via standard ELISAs. […] Prior to the addition of clonal phage. wells were incubated with blocking buffer and PSMA antigen or blocking buffer alone. Without washing or aspirating, clonal phage supernatants were then added to the wells and incubated for a short time. Wells were then washed followed by detection of bound phage using a horse radish conjugated anti-M13 antibody.

[3] = target: T2, PSMA Fab (SEQ ID NOs: 19, 20); assay: clonal phage ELISA on captured PSMA Fab, wells pre-incubated with PSMA antigen as competitor
T2 construct: also called Anti-PSMA Fab; 006 PSMA Fab
Protocol: as §1

[4] = target: T2, PSMA Fab (SEQ ID NOs: 19, 20); assay: clonal phage ELISA, biotinylated PSMA Fab on neutravidin plate, anti-M13 HRP detection;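 further: crude clonal phage supernatants added to wells pretreated with blocking buffer either with or without PSMA antigen, bound phage read after washing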
Protocol: as §1

Anti-PSMA Fab [5] = target: T3, Anti-PSMA Fab; assay: clonal phage ELISA on biotinylated PSMA Fab captured on neutravidin plate, anti-M13 HRP detection, blocking buffer alone
T3 construct: Biotinylated and captured on neutravidin coated plates in the phage ELISA; also called 006 PSMA Fab
Protocol: as §1

Anti-PSMA Fab [6] = target: T3, Anti-PSMA Fab; assay: clonal phage ELISA on captured PSMA Fab pre-incubated with PSMA antigen as competitor, anti-M13 HRP detection;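 further: crude clonal phage supernatants tested by ELISA, wells first treated with blocking buffer plus PSMA antigen, bound phage read out via HRP-linked anti-M13 antibody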
Protocol: as §1

Anti-PSMA Fab [7] = target: T4, Anti-PSMA Fab (biotinylated (site not stated)); assay: clonal phage ELISA on captured PSMA Fab, wells pre-incubated with PSMA antigen as competitor, anti-M13 HRP detection;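 further: crude clonal phage supernatants added, with no intervening wash, to wells preincubated with PSMA antigen in blocking buffer, incubated briefly, then washed before detecting bound phage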
T4 construct: also called 006 PSMA Fab

Anti-PSMA Fab [8] = target: T4, Anti-PSMA Fab; assay: clonal phage ELISA on biotinylated PSMA Fab captured on neutravidin plate, anti-M13 HRP detection
Protocol: as §1

| Binder | phage binding ELISA signal (PSMA Fab [1]) | phage binding ELISA signal (PSMA Fab [2]) | Phage binding ELISA signal, Anti-PSMA Fab with PSMA antigen [3] | Phage binding ELISA signal, Anti-PSMA Fab [4] | further results |
| --- | --- | --- | --- | --- | --- |
| B1 | 0.0618 | 1.69 | – | – | – |
| B2 | – | – | 0.0709 | 1.65 | – |
| B3 | – | – | – | – | Phage binding ELISA signal, Anti-PSMA Fab (Anti-PSMA Fab [5]): 1.7; Phage binding ELISA signal, Anti-PSMA Fab with PSMA antigen (Anti-PSMA Fab [6]): 0.0601 |
| B4 | 0.103 | 1.69 | – | – | – |
| B5 | 0.0909 | 1.69 | – | – | – |
| B6 | – | – | – | – | Phage binding ELISA signal, Anti-PSMA Fab with PSMA antigen (Anti-PSMA Fab [7]): 0.117; Phage binding ELISA signal, Anti-PSMA Fab (Anti-PSMA Fab [8]): 1.65 |
| B7 | – | – | – | – | Phage binding ELISA signal, Anti-PSMA Fab (Anti-PSMA Fab [5]): 1.7; Phage binding ELISA signal, Anti-PSMA Fab with PSMA antigen (Anti-PSMA Fab [6]): 0.0862 |
| B8 | 0.101 | 1.69 | – | – | – |
| B9 | – | – | 0.0907 | 1.65 | – |
| B10 | – | – | 0.1 | 1.66 | – |
| B11 | – | – | 0.0805 | 1.65 | – |
| B12 | – | – | – | – | Phage binding ELISA signal, Anti-PSMA Fab with PSMA antigen (Anti-PSMA Fab [7]): 0.0993; Phage binding ELISA signal, Anti-PSMA Fab (Anti-PSMA Fab [8]): 1.65 |
| B13 | – | – | 0.0725 | 1.66 | – |
| B14 | – | – | 0.125 | 1.65 | – |
| B15 | – | – | 0.105 | 1.65 | – |
| B16 | – | – | – | – | Phage binding ELISA signal, Anti-PSMA Fab (Anti-PSMA Fab [5]): 1.7; Phage binding ELISA signal, Anti-PSMA Fab with PSMA antigen (Anti-PSMA Fab [6]): 0.0592 |
| B17 | 0.0979 | 1.69 | – | – | – |
| B18 | 0.0536 | 1.69 | – | – | – |
| B19 | – | – | 0.146 | 1.65 | – |

| Binder | phage binding ELISA signal (PSMA Fab [1]) | phage binding ELISA signal (PSMA Fab [2]) | Phage binding ELISA signal, Anti-PSMA Fab with PSMA antigen [3] | Phage binding ELISA signal, Anti-PSMA Fab [4] | further results |
| --- | --- | --- | --- | --- | --- |
| B20 | – | – | 0.0753 | 1.65 | – |
| B21 | – | – | – | – | Phage binding ELISA signal, Anti-PSMA Fab (Anti-PSMA Fab [5]): 1.7; Phage binding ELISA signal, Anti-PSMA Fab with PSMA antigen (Anti-PSMA Fab [6]): 0.127 |
| B22 | 0.0795 | 1.7 | – | – | – |
| B23 | 0.0786 | 1.69 | – | – | – |
| B24 | – | – | – | – | Phage binding ELISA signal, Anti-PSMA Fab with PSMA antigen (Anti-PSMA Fab [7]): 0.089; Phage binding ELISA signal, Anti-PSMA Fab (Anti-PSMA Fab [8]): 1.64 |
| B25 | – | – | – | – | Phage binding ELISA signal, Anti-PSMA Fab with PSMA antigen (Anti-PSMA Fab [7]): 0.238; Phage binding ELISA signal, Anti-PSMA Fab (Anti-PSMA Fab [8]): 1.64 |
| B26 | 0.0708 | 1.7 | – | – | – |
| B27 | 0.0803 | 1.69 | – | – | – |
| B28 | – | – | 0.102 | 1.65 | – |
| B29 | – | – | – | – | Phage binding ELISA signal, Anti-PSMA Fab (Anti-PSMA Fab [5]): 1.7; Phage binding ELISA signal, Anti-PSMA Fab with PSMA antigen (Anti-PSMA Fab [6]): 0.0778 |
| B30 | 0.0705 | 1.69 | – | – | – |
| B31 | – | – | 0.118 | 1.66 | – |
| B32 | 0.0745 | 1.69 | – | – | – |
| B33 | – | – | 0.0634 | 1.66 | – |
| B34 | – | – | 0.0698 | 1.66 | – |
| B35 | – | – | – | – | Phage binding ELISA signal, Anti-PSMA Fab with PSMA antigen (Anti-PSMA Fab [7]): 0.0944; Phage binding ELISA signal, Anti-PSMA Fab (Anti-PSMA Fab [8]): 1.65 |
| B36 | – | – | 0.0738 | 1.65 | – |
| B37 | 0.0813 | 1.69 | – | – | – |
| B38 | 0.0584 | 1.69 | – | – | – |
